In US20180162938A1 (GANYMED PHARMACEUTICALS, published 2018):
One block for each molecule: values may come before it.

Tests used:
[1] = molecular target: T1, human CLDN6 (claudin 6), full length (human, UniProt P56747 1-220); experiment: flow cytometry, HEK293T transiently co-transfected with the claudin and a fluorescence reporter; other quadrants printed: Q1 0,09, Q3 75,0…, Q4 24,73
T1 construct: Expressed untagged from vector p3953 in HEK293T, HEK293 and CHO-K1 cells; endogenous in NEC8 and OV90 cells; In the Western blots it stood in denatured cell lysate; also called wild-type CLDN6
T1 sequence: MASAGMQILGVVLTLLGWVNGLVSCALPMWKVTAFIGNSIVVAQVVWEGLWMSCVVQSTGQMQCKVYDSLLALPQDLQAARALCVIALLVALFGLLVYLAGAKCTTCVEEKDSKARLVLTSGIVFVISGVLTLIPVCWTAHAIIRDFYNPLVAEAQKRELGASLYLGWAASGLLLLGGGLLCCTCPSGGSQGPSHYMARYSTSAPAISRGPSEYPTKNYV

[2] = molecular target: CLDN6 SNP (single nucleotide polymorphism) variant I143V (human) (UniProt P56747); experiment: flow cytometry, HEK293T transiently co-transfected with the claudin and a fluorescence reporter; other quadrants printed: Q1 0,18, Q3 64,8…, Q4 34,5…
[3] = molecular target: human CLDN3 (claudin 3) (human) (UniProt O15551); experiment: flow cytometry, HEK293T transiently co-transfected with the claudin and a fluorescence reporter; other quadrants printed: Q1 0,32, Q3 63,10, Q4 36,2…
[4] = molecular target: human CLDN4 (claudin 4) (human) (UniProt O14493); experiment: flow cytometry, HEK293T transiently co-transfected with the claudin and a fluorescence reporter; other quadrants printed: Q1 0,47, Q3 51,89, Q4 46,45
[5] = molecular target: human CLDN9 (claudin 9) (human) (UniProt O95484); experiment: flow cytometry, HEK293T transiently co-transfected with the claudin and a fluorescence reporter; other quadrants printed: Q1 0,65, Q3 53,91, Q4 44,03
[6] = molecular target: human CLDN3 (claudin 3) (human) (UniProt O15551); experiment: flow cytometry, HEK293T transiently co-transfected with the claudin and a fluorescence reporter; positive control, by the legend MAB4620; other quadrants printed: Q1 37,91, Q3 29,94, Q4 0,76
[7] = molecular target: CLDN6 SNP (single nucleotide polymorphism) variant I143V (human) (UniProt P56747); experiment: flow cytometry, HEK293T transiently co-transfected with the claudin and a fluorescence reporter; positive control, by the legend MAB3656; other quadrants printed: Q1 47,20, Q3 20,26, Q4 0,33
[8] = molecular target: T1, human CLDN6 (claudin 6), full length; experiment: flow cytometry, HEK293T transiently co-transfected with the claudin and a fluorescence reporter; positive control, by the legend MAB3656; other quadrants printed: Q1 58,39, Q3 18,6…, Q4 0,13
[9] = molecular target: T1, human CLDN6 (claudin 6), full length; experiment: flow cytometry saturation binding (median fluorescence), HEK293 cells stably expressing human CLDN6

human CLDN3 (claudin 3) (human), sequence (O15551 whole entry): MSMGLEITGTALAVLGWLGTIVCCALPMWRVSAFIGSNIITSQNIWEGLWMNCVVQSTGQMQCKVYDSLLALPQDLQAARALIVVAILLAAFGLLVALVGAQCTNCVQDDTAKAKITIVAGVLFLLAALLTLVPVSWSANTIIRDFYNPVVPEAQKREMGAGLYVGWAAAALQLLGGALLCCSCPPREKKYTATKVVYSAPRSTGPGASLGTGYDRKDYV
human CLDN9 (claudin 9) (human), sequence (O95484 whole entry): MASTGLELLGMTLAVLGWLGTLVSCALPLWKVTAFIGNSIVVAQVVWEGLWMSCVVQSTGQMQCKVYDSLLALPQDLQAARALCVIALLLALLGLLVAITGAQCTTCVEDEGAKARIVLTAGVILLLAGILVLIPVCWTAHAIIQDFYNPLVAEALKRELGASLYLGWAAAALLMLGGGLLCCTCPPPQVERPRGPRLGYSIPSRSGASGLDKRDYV

- percent of events in Q2 (reporter-positive, antibody-positive) [1]: 0.12
- percent of events in Q2 (reporter-positive, antibody-positive) [2]: 0.44
- percent of events in Q2 (reporter-positive, antibody-positive) [3]: 0.37
- percent of events in Q2 (reporter-positive, antibody-positive) [4]: 1.18
- percent of events in Q2 (reporter-positive, antibody-positive) [5]: 1.42
Molecule: Isotype (antibody)

- percent of events in Q2 (reporter-positive, antibody-positive) [6]: 31.4
Molecule: mouse anti-CLDN3 IgG2a (R&D Systems, MAB4620) (antibody)

- percent of events in Q2 (reporter-positive, antibody-positive) [7]: 32.2
- percent of events in Q2 (reporter-positive, antibody-positive) [8]: 22.8
Molecule: mouse anti-CLDN6 IgG2b (R&D Systems, MAB3656) (antibody)

- EC50 (read off the curve) [9]: ~0.4 µg/mL
B1: murine monoclonal antibody muMAB 67A (antibody, V domains shown)
VH: EVQLQQSGPELVKPGASMKISCKASGYSFTGYTMNWVKQSHGKNLEWIGLINPYNGGIIYNQKFKGKATLTVDKSSSTAYMELLSLTSEDSAVFYCARDFGYVLDYWGQGTTLTVSS
VL: QIVLTQSPAIMSASPGEKVTITCSASSSVSYMHWFQQKPGTSPKLWIYSTSNLASGVPARFSGSGSGTSYSLTISRVAAEDAATYYCQQRSTYPPWTFGGGTKLEIK
